For one test, the target named is EGFRvIII (CHO cells) (human). The experiment in a line: FACS, CHO cells 37C.
Test [1] concerns the target T1, cynomolgus FcγRIIa (CD32A) (cynomolgus).
T1 chain: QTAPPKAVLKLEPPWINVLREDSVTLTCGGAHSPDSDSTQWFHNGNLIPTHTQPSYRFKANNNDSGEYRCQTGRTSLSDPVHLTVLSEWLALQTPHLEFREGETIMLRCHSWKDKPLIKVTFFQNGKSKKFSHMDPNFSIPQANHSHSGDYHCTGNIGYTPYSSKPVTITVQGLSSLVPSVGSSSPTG
The experiment in a line: SPR. (In general: In SPR one partner is held on a chip, and binding of the other changes the refractive index at the surface.)

A further test concerns the target T2, cynomolgus FcRn (cynomolgus, UniProt Q8SPV9).
T2 chain 1: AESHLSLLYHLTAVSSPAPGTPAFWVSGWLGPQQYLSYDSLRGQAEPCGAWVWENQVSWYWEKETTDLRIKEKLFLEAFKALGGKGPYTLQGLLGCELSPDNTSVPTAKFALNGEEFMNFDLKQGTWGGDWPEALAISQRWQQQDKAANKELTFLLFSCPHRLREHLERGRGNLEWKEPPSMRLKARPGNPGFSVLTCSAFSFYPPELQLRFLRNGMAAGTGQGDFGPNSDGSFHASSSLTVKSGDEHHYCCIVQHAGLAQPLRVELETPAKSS
T2 chain 2: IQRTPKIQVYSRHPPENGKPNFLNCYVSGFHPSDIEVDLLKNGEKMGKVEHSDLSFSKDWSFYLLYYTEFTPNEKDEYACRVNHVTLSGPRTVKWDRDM
The experiment in a line: SPR, pH 6.0.

For a further test, the target named is human FcRn (human, UniProt P55899). The test can be described thus: SPR, pH 6.0.
A further test deals with T3, murine FcγRIV (CD16-2) (mouse, UniProt A0A0B4J1G0).
T3 chain: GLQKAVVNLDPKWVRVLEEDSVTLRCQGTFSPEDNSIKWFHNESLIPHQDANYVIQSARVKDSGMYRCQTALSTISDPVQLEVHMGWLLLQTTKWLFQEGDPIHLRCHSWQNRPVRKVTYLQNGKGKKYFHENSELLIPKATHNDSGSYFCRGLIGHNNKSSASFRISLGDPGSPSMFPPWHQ
The experiment in a line: SPR.

Test [2] has as its target T4, human FcγRIIIb (NA1) CD16B (human, UniProt O75015).
T4 chain: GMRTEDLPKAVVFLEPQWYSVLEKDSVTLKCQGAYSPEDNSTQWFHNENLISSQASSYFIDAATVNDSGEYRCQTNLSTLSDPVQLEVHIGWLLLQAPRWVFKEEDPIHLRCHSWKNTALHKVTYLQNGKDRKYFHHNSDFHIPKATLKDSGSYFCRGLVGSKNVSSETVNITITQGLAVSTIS
The test can be described thus: SPR.

In another test the target is T5, murine FcγRI (mouse, UniProt P26151).
T5 chain: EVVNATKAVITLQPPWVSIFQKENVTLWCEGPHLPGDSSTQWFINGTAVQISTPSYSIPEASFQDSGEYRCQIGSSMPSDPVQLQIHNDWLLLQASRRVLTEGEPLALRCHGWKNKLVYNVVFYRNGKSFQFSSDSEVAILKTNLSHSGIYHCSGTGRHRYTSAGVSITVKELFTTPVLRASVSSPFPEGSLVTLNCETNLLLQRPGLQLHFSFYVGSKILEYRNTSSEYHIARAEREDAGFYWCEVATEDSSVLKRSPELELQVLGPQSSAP
The test can be described thus: SPR.

The next test addresses T6, human FcγRIIa (CD32A) (human, UniProt P12318).
T6 chain: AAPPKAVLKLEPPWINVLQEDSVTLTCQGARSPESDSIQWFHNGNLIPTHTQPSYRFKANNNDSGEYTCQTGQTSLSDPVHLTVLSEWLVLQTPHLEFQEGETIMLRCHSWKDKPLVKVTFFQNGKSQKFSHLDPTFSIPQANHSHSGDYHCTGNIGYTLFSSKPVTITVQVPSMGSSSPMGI
The test can be described thus: SPR.

Another test deals with T7, murine FcγRIII (mouse, UniProt P08508).
T7 chain: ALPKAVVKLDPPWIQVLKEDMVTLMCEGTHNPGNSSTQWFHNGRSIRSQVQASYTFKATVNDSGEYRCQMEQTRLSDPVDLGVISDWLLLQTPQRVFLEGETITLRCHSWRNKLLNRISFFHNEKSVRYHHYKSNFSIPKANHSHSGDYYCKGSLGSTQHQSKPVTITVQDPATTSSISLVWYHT
The test can be described thus: SPR.

Another test has as its target T8, human FcγRIIc (CD32C) (human, UniProt P31995).
T8 chain: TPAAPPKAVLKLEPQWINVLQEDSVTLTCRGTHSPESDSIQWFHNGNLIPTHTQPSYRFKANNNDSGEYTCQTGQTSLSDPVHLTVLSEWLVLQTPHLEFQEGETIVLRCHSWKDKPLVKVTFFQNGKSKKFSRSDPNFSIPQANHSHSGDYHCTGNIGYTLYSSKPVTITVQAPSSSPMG
The experiment in a line: SPR.

The target of the next test is T9, human FcγRIIb (CD32B) (human, UniProt P31994).
T9 chain: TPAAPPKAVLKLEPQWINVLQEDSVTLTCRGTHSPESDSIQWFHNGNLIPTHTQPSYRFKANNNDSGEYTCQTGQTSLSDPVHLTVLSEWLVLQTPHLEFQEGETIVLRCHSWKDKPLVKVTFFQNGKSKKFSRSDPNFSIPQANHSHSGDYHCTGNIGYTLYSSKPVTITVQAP
The experiment in a line: SPR.

The next test deals with T10, murine FcγRIIb (mouse, UniProt P08101).
T10 chain: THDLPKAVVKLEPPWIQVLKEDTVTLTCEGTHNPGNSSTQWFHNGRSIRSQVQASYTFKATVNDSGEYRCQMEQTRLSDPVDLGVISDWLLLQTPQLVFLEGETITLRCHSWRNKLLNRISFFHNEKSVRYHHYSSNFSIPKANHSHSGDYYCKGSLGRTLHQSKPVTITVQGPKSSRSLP
The test can be described thus: SPR.

Another test concerns the target T11, human FcγRI (CD64) (human, UniProt P12314).
T11 chain: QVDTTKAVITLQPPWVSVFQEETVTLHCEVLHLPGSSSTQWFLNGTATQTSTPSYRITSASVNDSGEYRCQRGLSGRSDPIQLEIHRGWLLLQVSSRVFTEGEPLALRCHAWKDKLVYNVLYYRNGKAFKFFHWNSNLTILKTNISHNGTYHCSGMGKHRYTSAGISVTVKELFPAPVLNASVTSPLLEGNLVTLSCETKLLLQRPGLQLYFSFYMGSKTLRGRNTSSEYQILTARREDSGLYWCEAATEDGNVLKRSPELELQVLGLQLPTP
The test can be described thus: SPR.

In a further test the target is T12, murine FcRn (mouse, UniProt Q61559).
T12 chain 1: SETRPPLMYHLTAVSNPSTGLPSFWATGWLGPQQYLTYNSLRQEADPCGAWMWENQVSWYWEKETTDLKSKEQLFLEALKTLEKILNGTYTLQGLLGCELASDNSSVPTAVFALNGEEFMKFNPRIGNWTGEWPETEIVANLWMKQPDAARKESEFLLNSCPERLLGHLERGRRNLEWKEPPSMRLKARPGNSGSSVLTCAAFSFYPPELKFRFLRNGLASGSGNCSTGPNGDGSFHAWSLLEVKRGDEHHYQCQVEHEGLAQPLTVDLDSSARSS
T12 chain 2: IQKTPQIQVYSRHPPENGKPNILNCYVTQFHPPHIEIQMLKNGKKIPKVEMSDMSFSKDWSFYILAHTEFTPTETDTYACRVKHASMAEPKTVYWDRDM
The experiment in a line: SPR, pH 6.0.

B1: Tandem diabody EGFR arm (antibody, V domains shown)
VH: QVQLQESGPGLVKPSETLSLTCTVSGGSVSSGSYYWSWIRQPPGKGLEWIGYIYYSGSTNYNPSLKSRVTISVDTSKNQFSLKLSSVTAADTAVYYCARNPISIPAFDIWGQGTMVTVSS
VL: QPVLTQPPSVSVAPGKTARITCGGNNIGSKSVHWYQQKPGQAPVLVIYYDSDRPSGIPERFSGSNSGNTATLTISRVEAGDEADYYCQVWDTSSDHVLFGGGTKLTVL
For the molecule B1, in the test with EGFRvIII (CHO cells), the Kd (as a rule, a measure of binding affinity in units of concentration) turned out to be 0.5 nM.

B2: scFv-IgAb_02 (full) (antibody)
chain 1: QVQLVQSGAEVKKPGESLKVSCKASGYTFTSYYMHWVRQAPGQGLEWMGIINPSGGSTSYAQKFQGRVTMTRDTSTSTVYMELSSLRSEDTAVYYCARGSAYYYDFADYWGQGTLVTVSSASTKGPSVFPLAPSSKSTSGGTAALGCLVKDYFPEPVTVSWNSGALTSGVHTFPAVLQSSGLYSLSSVVTVPSSSLGTQTYICNVNHKPSNTKVDKKVEPKSCDKTHTCPPCPAPEFEGGPSVFLFPPKPKDTLMISRTPEVTCVVVAVSHEDPEVKFNWYVDGVEVHNAKTKPREEQYNSTYRVVSVLTVLHQDWLNGKEYKCKVSNKALPAPIEKTISKAKGQPREPQVYTLPPSREEMTKNQVSLTCLVKGFYPSDIAVEWESNGQPENNYKTTPPVLDSDGSFFLYSKLTVDKSRWQQGNVFSCSVMHEALHNHYTQKSLSLSPGGGGGSGGGGSQVQLQESGPGLVKPSETLSLTCTVSGGSVSSGSYYWSWIRQPPGKGLEWIGYIYYSGSTNYNPSLKSRVTISVDTSKNQFSLKLSSVTAADTAVYYCARNPISIPAFDIWGQGTMVTVSSGGSGGSGGSGGSGGSGGSQPVLTQPPSVSVAPGKTARITCGGNNIGSKSVHWYQQKPGQAPVLVIYYDSDRPSGIPERFSGSNSGNTATLTISRVEAGDEADYYCQVWDTSSDHVLFGGGTKLTVL
chain 2: SYVLTQPSSVSVAPGQTATISCGGHNIGSKNVHWYQQRPGQSPVLVIYQDNKRPSGIPERFSGSNSGNTATLTISGTQAMDEADYYCQVWDNYSVLFGGGTKLTVLGQPKAAPSVTLFPPSSEELQANKATLVCLISDFYPGAVTVAWKADSSPVKAGVETTTPSKQSNNKYAASSYLSLTPEQWKSHRSYSCQVTHEGSTVEKTVAPTECS
Take B2: the binding result (in [1]; with murine FcγRIV (CD16-2); in [2]; with murine FcγRI; with human FcγRIIa (CD32A); with murine FcγRIII) was “no binding” each time. Further, the binding result with human FcγRIIc (CD32C), with human FcγRIIb (CD32B), with murine FcγRIIb and with human FcγRI (CD64) was “no binding” throughout. Also, the values for the Kd with cynomolgus FcRn, with human FcRn and in the test with murine FcRn were 842 nM, 430 nM and 180 nM, respectively.

For the origin of these results see patent US20230190900 (published 2023).
